Blank lines part the entries; values can stand above or below the binder they belong to.
Key:
[1] = target: T1, FANCM C-terminal fragment (FANCMCTD), residues 1,799-2,048 (human, UniProt Q8IYD8 1799-2048); assay: crystal structure
T1 sequence (looked up): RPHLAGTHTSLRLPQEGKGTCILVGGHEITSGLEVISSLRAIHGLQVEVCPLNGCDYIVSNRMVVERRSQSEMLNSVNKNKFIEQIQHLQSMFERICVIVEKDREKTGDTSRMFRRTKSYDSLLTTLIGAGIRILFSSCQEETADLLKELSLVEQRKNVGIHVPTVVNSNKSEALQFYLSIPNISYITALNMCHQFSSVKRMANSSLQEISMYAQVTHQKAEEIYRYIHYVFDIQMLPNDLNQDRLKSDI

[2] = target: full-length FANCM (N-terminal Flag-tag, C-terminal 8His-tag) (human, UniProt Q8IYD8 1-2048); assay: negative-stain single particle electron microscopy
FANCM CTD;FAAP24 = target: T2, FANCM CTD;FAAP24 (human?;human?, UniProt Q8IYD8;Q9BTP7 1799-2048;1-215, |); assay: X-ray crystallography
T2 sequence 1: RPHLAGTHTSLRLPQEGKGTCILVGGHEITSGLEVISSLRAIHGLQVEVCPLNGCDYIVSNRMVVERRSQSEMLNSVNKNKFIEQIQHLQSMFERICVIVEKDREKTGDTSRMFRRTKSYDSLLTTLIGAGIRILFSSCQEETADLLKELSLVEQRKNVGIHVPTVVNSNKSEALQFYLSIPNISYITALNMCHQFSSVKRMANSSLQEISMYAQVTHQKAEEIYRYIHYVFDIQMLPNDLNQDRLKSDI
T2 sequence 2: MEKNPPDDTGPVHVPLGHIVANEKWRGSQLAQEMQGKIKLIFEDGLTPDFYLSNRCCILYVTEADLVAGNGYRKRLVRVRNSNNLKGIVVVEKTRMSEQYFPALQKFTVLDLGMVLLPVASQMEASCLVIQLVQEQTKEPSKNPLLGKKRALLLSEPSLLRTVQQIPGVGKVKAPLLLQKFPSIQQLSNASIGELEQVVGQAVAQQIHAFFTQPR

binding result [1]: binds
B1: FAAP24 (full length), partner in the FANCMCTD-FAAP24 complex (natural protein, human, UniProt Q9BTP7 1-215, looked up)
chain: MEKNPPDDTGPVHVPLGHIVANEKWRGSQLAQEMQGKIKLIFEDGLTPDFYLSNRCCILYVTEADLVAGNGYRKRLVRVRNSNNLKGIVVVEKTRMSEQYFPALQKFTVLDLGMVLLPVASQMEASCLVIQLVQEQTKEPSKNPLLGKKRALLLSEPSLLRTVQQIPGVGKVKAPLLLQKFPSIQQLSNASIGELEQVVGQAVAQQIHAFFTQPR

binding result [2]: binds
B2: FAAP24, untagged, co-expressed with full-length FANCM (natural protein, human, UniProt Q9BTP7 1-215, looked up)
chain: MEKNPPDDTGPVHVPLGHIVANEKWRGSQLAQEMQGKIKLIFEDGLTPDFYLSNRCCILYVTEADLVAGNGYRKRLVRVRNSNNLKGIVVVEKTRMSEQYFPALQKFTVLDLGMVLLPVASQMEASCLVIQLVQEQTKEPSKNPLLGKKRALLLSEPSLLRTVQQIPGVGKVKAPLLLQKFPSIQQLSNASIGELEQVVGQAVAQQIHAFFTQPR

B3: 11 bp crystallization duplex (dsDNA)
DNA 1: GATGATGCTGA
DNA 2: TCAGCATCATC
binding result (FANCM CTD;FAAP24): binds

— article PMC3763369 (Structure(London, England:1993), 2013)
